The record followed here is US20230049752A1 (University of California, published 2023).

Changes are numbered by the printed parent chain.

First the molecules themselves.
T1: mouse Claudin-6 (CLDN6) (mouse, UniProt Q9Z262 1-219)
T1 construct: whole, on cells; GFP fusion on engineered HEK293T cells; also called Mouse CLDN6; murine CLDN6
T1 sequence (looked up): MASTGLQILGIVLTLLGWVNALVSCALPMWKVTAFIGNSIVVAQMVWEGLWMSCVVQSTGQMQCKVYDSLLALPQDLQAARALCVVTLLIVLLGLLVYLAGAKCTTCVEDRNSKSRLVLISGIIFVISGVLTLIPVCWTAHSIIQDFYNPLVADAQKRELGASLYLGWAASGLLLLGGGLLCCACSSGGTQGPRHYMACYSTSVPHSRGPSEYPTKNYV

B1: AB1-7 (antibody, V domains shown)
VH: QVQLVQSGAEVKKPGASVKMSCKASGYTFTTYTMHWVRQAPGQGLEWIGFINPSSGYTDYAQKFQGRVTLTADTSTSTVYMELSSLRSEDTAVYYCANGDYYVAYWGQGTLVTVSS
VL: DIQLTQSPSSLSASVGDRVTMTCTASSSVSSTYFHWYQQKPGKAPKLLIYSTSNLASGVPSRFSGSGSGTDYTLTISSMQPEDAATYYCHQYHRSPLTFGQGTKLEIK
notes: humanized
B2: AB1-3 (antibody, V domains shown)
VH: B1 VH with M20V, I48M, L70M
VL: B1 VL with L4M, M21I, M79L, A84F
notes: humanized
B3: AB1-11 (antibody, V domains shown)
VH: B1 VH with T74K
VL: B1 VL with L48W
notes: humanized; also called humanized AB1-11; HU-11
B4: AB4-6 (antibody, V domains shown)
VH: QVQLVQSGAEVKKPGASVKMSCKASGYTFTSYTMHWIRQAPGQGLEWIGYINPSSTYTHYAQKFQGRATLTADKSTSTAYMELSSLRSEDTAVYYCSRGELGGFAYWGQGTLVTVSS
VL: DVVMTQSPLSLPVTLGQPASISCRSSQSLVHSDGNTYLNWYQQRPGQSPRLLIYKVSNRFSGVPDRFSGSGSGTDFTLKISRVEAEDVGVYYCSQSTHVPYTFGQGTKLEIK
notes: humanized
B5: AB4-12 (antibody, V domains shown)
VH: B4 VH with L45Q, A61I, Q62K, Q65K, G66D
VL: B4 VL
notes: humanized
B6: AB4-7 (antibody, V domains shown)
VH: B4 VH with L45Q
VL: B4 VL
notes: humanized
B7: AB4-10 (antibody, V domains shown)
VH: B4 VH with L45Q, A61I, Q62K, Q65K, G66D, K74T
VL: B4 VL
notes: humanized
B8: AB4-9 (antibody, V domains shown)
VH: B4 VH with A61I, Q62K, Q65K, G66D, K74T
VL: B4 VL
notes: humanized
B9: AB4-11 (antibody, V domains shown)
VH: B4 VH with A61I, Q62K, Q65K, G66D
VL: B4 VL
notes: humanized
B10: AB4-8 (antibody, V domains shown)
VH: QVQLVQSGAEVKKPGASVKVSCKASGYTFTSYTMHWVRQAPGQGLEWMGYINPSSTYTHYIKKFKDRVTMTADTSTSTVYMELSSLRSEDTAVYYCSRGELGGFAYWGQGTLVTVSS
VL: B4 VL
notes: humanized
B11: AB9-chim (antibody, V domains shown)
VH: EVQLQQSGPELVKPGASVKMSCKASGYRFTDYNMHWVKQSHGKSLEWIGYINPNNGGTNYNQNFKGKATLTVNKSSSTAYMELRSLTSEDSAAYYCARDYLYFFDCWGQGTTLTVSS
VL: DIQMTQSPASQSASLGESVTITCLASQTIGTWLAWYQQKPGKSPQLLIYAAASLADGVPSRFSGSGSGTRFSFKISSLQAEDFVSYYCQQLYSIPRTFGGGTKLEIK
B12: AB9-3 (antibody, V domains shown)
VH: QVQLVQSGAEVKKPGASVKMSCKASGYRFTDYNMHWVRQAPGQGLEWIGYINPNNGGTNYAQKFQGRATLTVDTSTSTAYMELSSLRSEDTAVYYCARDYLYFFDCWGQGTLLTVSS
VL: DIQMTQSPSSLSASVGDRVTITCLASQTIGTWLAWYQQKPGKAPKLLIYAAASLADGVPSRFSGSGSGTDFTFTISSLQPEDFVTYYCQQLYSIPRTFGQGTKLEIK
B13: AB18-4 (antibody, V domains shown)
VH: QVQLVQSGAEVKKPGASVKVSCKASGYSFTGYNMNWVRQAPGQGLEWMGNIDPYYGGSTYAQKFQGRVTMTVDTSTSTVYMELSSLRSEDTAVYYCARERSGYVFSAMDYWGQGTLVTVSS
VL: DIVMTQSPDSLAVSLGERVTMNCKSSQSVLFSSNQKNYLAWYQQKPGQPPKLLIYWASTRESGVPDRFSGSGSGTDFTLTISSVQAEDVAVYYCHQYLSSRTFGQGTKLEIK
B14: AB18-6 (antibody, V domains shown)
VH: B13 VH with V20I, M48I, V68A, M70L, V79A
VL: B13 VL
B15: AB18-chim (antibody, V domains shown)
VH: QVQLKQSGPELEKPGASVKISCKASGYSFTGYNMNWVKQSNGKSLEWIGNIDPYYGGSTYNQKFTGKATLTVDKSSSTAYMQLKSLTSEDSAVYYCARERSGYVFSAMDYWGQGTSVTVSS
VL: NIMMTQSPSSLAVSAGEKVTMSCKSSQSVLFSSNQKNYLAWYQQKPGQSPRLLIYWASTRESGVPDRFTGSGSGTDFTLTISNVQAEDLAVYYCHQYLSSRTFGAGTKLELK

One experiment has as its target T1, mouse Claudin-6 (CLDN6). Nature of the experiment: FACS, 293T clone expressing mouse CLDN6, dose not stated (2nd Ab only 1061.72). The procedure: Two doses (1.5 μg or 0.3 μg) of the humanized antibodies were tested for binding to either human CLDN6 or murine CLDN6 which proteins were expressed by engineered 293T clones.
The molecule B1 came in with an FACS fluorescence of 99700.
On the same count and under the same terms, under B2 stands 89300; under B3, 101000.
Still for that read-out and setting: under B4 stands 14200; under B5, 1130; under B6, 6640.
Same read-out and setting: under B7 stands 2650; under B8, 1780.
Take B9: the FACS fluorescence was 1230.
The same measure, in the same setting: under B10 stands 4700.

For the next experiment, the target named is human Claudin-6 (CLDN6) (human) (UniProt P56747). The experiment in a line: FACS, limiting dilution, ARK2 cells.
The molecule B3 gave an FACS signal at 0.32 nM of 377, an FACS signal at 1.6 nM of 639, an FACS signal at 8 nM of 2290 and an FACS signal at 40 nM of 3460. The FACS signal at 200 nM worked out at 16400 and the FACS signal at 1000 nM amounted to 50500.

A further experiment shares this target. The experiment in a line: FACS, limiting dilution, UMUC4 cells.
Molecule B3 registered an FACS signal at 0.32 nM of 618, an FACS signal at 1.6 nM of 839, an FACS signal at 8 nM of 1610 and an FACS signal at 40 nM of 4160. This molecule yielded an FACS signal at 200 nM of 25700.

The next experiment shares this target. The experiment in a line: FACS, 1.5 ug Ab, OVCA429 cells (2nd Ab only 885.77).
As for B11, the FACS fluorescence came to 3570.
Still for that read-out and setting: under B12 stands 1260.
Consider B1, for which the FACS fluorescence worked out at 44700.
B2 had an FACS fluorescence of 27500.
Still for that read-out and setting: under B13 stands 3220; under B14, 6750; under B15, 25500.

The target is the same in a further experiment. The experiment in a line: FACS, 0.3 ug Ab, ARK2 cells (2nd Ab only 1351.21).
B11 showed an FACS fluorescence of 3510.
Regarding B12, the FACS fluorescence is 1140.
On the same count and under the same terms, under B1 stands 4440.
B2: the FACS fluorescence came to 2830.
Turning to B3, the FACS fluorescence is 53900.
Same read-out and setting: the result for B13 reads 1130.
On the same count and under the same terms, the result for B14 reads 1390; that for B4, 3300; that for B5, 9690.
Same read-out and setting: the result for B6 reads 2770.
On to B7, for which the FACS fluorescence is 7210.
The same measure, in the same setting: under B8 stands 3060.
On the same count and under the same terms, under B9 stands 6390.
On to B10, for which the FACS fluorescence came to 3120.
On to B15, for which the FACS fluorescence was found to be 3440.

The next experiment shares this target. The experiment in a line: FACS, 0.3 ug Ab, 293T clone expressing human CLDN6 (2nd Ab only 768.07).
In the case of B11, the FACS fluorescence turned out to be 46700.
B12 yielded an FACS fluorescence of 9500.
Still for that read-out and setting: the result for B1 reads 79200.
For B2, the FACS fluorescence was 142000.
On the same count and under the same terms, under B3 stands 64900; under B13, 32400; under B14, 26900.
Still for that read-out and setting: under B4 stands 10800; under B5, 71100; under B6, 19200.
The same measure, in the same setting: under B7 stands 50800.
Consider B8, for which the FACS fluorescence amounted to 37200.
Consider B9, for which the FACS fluorescence is 37800.
Still for that read-out and setting: the result for B10 reads 49300.
The same measure, in the same setting: under B15 stands 73800.

For a further experiment the target is unchanged. Nature of the experiment: FACS, limiting dilution, OV90 cells.
Regarding B3, the FACS signal at 0.32 nM is 452, the FACS signal at 1.6 nM came to 753, the FACS signal at 8 nM came out at 2150 and the FACS signal at 40 nM amounted to 7820. The same molecule gave an FACS signal at 200 nM of 32500 and an FACS signal at 1000 nM of 72100.

A further experiment shares this target. The experiment in a line: FACS, 1.5 ug Ab, 293T clone expressing human CLDN6 (2nd Ab only 768.07).
Turning to B11, the FACS fluorescence was 72000.
As to B12, the FACS fluorescence was 24600.
Still for that read-out and setting: the result for B1 reads 207000; that for B2, 142000.
With B3, the FACS fluorescence turned out to be 113000.
On to B13, for which the FACS fluorescence was found to be 54400.
Molecule B14 had an FACS fluorescence of 58500.
The same measure, in the same setting: the result for B4 reads 29200.
The same measure, in the same setting: the result for B5 reads 86200; that for B6, 33300.
On the same count and under the same terms, the result for B7 reads 77200.
For B8, the FACS fluorescence was 56900.
Still for that read-out and setting: under B9 stands 61200.
Same read-out and setting: the result for B10 reads 77600; that for B15, 135000.

Another experiment has the same target. The experiment in a line: FACS, 1.5 ug Ab, ARK2 cells (2nd Ab only 1351.21).
Molecule B11 registered an FACS fluorescence of 4490.
The same measure, in the same setting: the result for B12 reads 1470; that for B1, 11200.
Same read-out and setting: under B2 stands 10800; under B3, 97700; under B13, 1380.
The same measure, in the same setting: the result for B14 reads 1940; that for B4, 9840; that for B5, 24200.
The molecule B6 registered an FACS fluorescence of 7560.
B7 came in with an FACS fluorescence of 20200.
The same measure, in the same setting: under B8 stands 7790; under B9, 9170; under B10, 7310.
Still for that read-out and setting: the result for B15 reads 9150.
